In US20220403041A1 (Sanofi, published 2022):

What was measured:
[1] = target: T1, human CD73 on COR-L23 lung carcinoma cells (human) (UniProt P21589)
T1 sequence: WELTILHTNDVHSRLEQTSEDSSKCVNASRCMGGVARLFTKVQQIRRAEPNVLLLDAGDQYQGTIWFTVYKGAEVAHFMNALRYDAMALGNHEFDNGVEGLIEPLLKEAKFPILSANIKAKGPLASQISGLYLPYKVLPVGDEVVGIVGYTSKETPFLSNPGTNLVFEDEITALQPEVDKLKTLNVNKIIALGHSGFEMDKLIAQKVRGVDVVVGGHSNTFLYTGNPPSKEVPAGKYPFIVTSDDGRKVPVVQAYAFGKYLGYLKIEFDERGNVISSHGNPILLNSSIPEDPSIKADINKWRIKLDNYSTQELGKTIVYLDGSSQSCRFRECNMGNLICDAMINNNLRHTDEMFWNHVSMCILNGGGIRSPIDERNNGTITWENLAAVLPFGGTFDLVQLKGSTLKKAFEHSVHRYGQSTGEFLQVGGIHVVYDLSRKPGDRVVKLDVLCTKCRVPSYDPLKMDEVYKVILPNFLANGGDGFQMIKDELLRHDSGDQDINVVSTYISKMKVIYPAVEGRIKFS

soluble CD73 dimer [2] = target: T2, soluble CD73 dimer (human, UniProt P21589 27-549, limits assumed); assay: SPR, antibody captured on Protein A chip, CD73 in flow; biphasic fit, component of abundance 15%
T2 construct: CD73 in the flow (SPR) or in solution (BLI binning); also called soluble human CD73
T2 sequence: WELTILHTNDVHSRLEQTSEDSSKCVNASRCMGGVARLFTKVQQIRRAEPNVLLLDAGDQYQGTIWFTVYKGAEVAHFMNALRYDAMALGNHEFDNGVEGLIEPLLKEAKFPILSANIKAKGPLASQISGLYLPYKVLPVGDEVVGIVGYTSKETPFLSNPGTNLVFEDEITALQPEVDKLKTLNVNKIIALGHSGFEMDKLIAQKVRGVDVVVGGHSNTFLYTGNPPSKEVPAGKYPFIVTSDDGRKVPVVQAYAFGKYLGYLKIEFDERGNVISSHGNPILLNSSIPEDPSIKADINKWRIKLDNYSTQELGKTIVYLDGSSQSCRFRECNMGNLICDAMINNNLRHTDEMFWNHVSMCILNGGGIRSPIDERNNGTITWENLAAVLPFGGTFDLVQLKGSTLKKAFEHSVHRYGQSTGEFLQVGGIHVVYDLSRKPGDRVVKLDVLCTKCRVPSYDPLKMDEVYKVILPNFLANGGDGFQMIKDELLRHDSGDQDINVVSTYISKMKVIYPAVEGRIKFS

soluble CD73 dimer [3] = target: T2, soluble CD73 dimer; assay: SPR, antibody captured on chip, CD73 in flow; biphasic fit, share by T0 intercept of the component with kd 2.70E-05 1/s
soluble CD73 dimer [4] = target: T2, soluble CD73 dimer; assay: SPR, antibody captured on Protein A chip, CD73 in flow; biphasic fit, component of abundance 65%
soluble CD73 dimer [5] = target: T2, soluble CD73 dimer; assay: SPR dissociation kinetics
[6] = target: T1, human CD73 on COR-L23 lung carcinoma cells (human); assay: cell-based or functional assay
soluble CD73 dimer [7] = target: T2, soluble CD73 dimer; assay: SPR, antibody captured on chip, CD73 in flow; biphasic fit, share after 300 s binding phase of the component with ka 2.81E+05 1/Ms
soluble CD73 dimer [8] = target: T2, soluble CD73 dimer; assay: SPR, antibody captured on Protein A chip, CD73 in flow; biphasic fit, component of abundance 85%
soluble CD73 dimer [9] = target: T2, soluble CD73 dimer; assay: SPR; KD from Langmuir ka and kd of the principal dissociation component
soluble CD73 dimer [10] = target: T2, soluble CD73 dimer; assay: SPR, antibody captured on chip, CD73 in flow; biphasic fit, share after 300 s binding phase of the component with ka 1.38E+06 1/Ms
soluble CD73 dimer [11] = target: T2, soluble CD73 dimer; assay: SPR, antibody captured on Protein A chip, CD73 in flow; Langmuir ka with major component kd
soluble CD73 dimer [12] = target: T2, soluble CD73 dimer; assay: SPR, antibody captured on chip, CD73 in flow; biphasic fit, share by T0 intercept of the component with kd 2.70E-03 1/s
soluble CD73 dimer [13] = target: T2, soluble CD73 dimer; assay: SPR, antibody on the solid support, soluble CD73 dimer in solution
soluble CD73 dimer [14] = target: T2, soluble CD73 dimer; assay: SPR, antibody captured on Protein A chip, CD73 in flow; biphasic fit, component of abundance 35%
soluble CD73 dimer [15] = target: T2, soluble CD73 dimer; assay: SPR, antibody captured on Protein A chip, CD73 in flow; Langmuir 1:1 fit

B1: TB19/C16 (bispecific antibody, part only; not given: C16 arm, part only)
TB19 arm heavy chain: QEQLQESGPGLVKPSETLSLTCTVSGGSIRNNYYNWIRQPAGKGLEWIGRIYISGTTNSNPSLKSRVTMSIDTSKNQFSLKLSSVTAADTAIYYCAREHYVSGTSLDNWGQGTLVTVSS
TB19 arm light chain: EIVMTQSPTTLSLSPGERATLSCRASQSVNTNYFSWYQQKPGLTPRLLIYGTSTRATGIPARFSGSGSGTDFTLTISSLQPEDFGIYYCQQDYNLPYTFGQGTYLEIKRTVAAPSVFIFPPSDEQLKSGTASVVCLLNNFYPREAKVQWKVDNALQSGNSQESVTEQDSKDSTYSLSSTLTLSKADYEKHKVYACEVTHQGLSSPVTKSFNRGEC
**Q.** B1 was tested. Which % inhibition of CD73 activity at 1 µg/ml antibody (COR-L23 cells, 4 h, LC/MS); cell TB19 x C16 [1] did it give?
**A.** Its % inhibition of CD73 activity at 1 µg/ml antibody (COR-L23 cells, 4 h, LC/MS); cell TB19 x C16 is 85%.

B2: TB19/H19 (bispecific antibody, part only; not given: H19 arm; constant regions, V domains shown, part only)
VH: QEQLQESGPGLVKPSETLSLTCTVSGGSIRNNYYNWIRQPAGKGLEWIGRIYISGTTNSNPSLKSRVTMSIDTSKNQFSLKLSSVTAADTAIYYCAREHYVSGTSLDNWGQGTLVTVSS
VL: EIVMTQSPTTLSLSPGERATLSCRASQSVNTNYFSWYQQKPGLTPRLLIYGTSTRATGIPARFSGSGSGTDFTLTISSLQPEDFGIYYCQQDYNLPYTFGQGTYLEIK
**Q.** B2 was tested. Which koff (soluble CD73 dimer [2]) did it give?
**A.** The koff was 0.0027 s⁻¹.

**Q.** What about the abundance of dissociation component (biphasic fit) (soluble CD73 dimer [3]) of the same binder?
**A.** The abundance of dissociation component (biphasic fit) was 85%.

**Q.** And the kon (soluble CD73 dimer [4])?
**A.** The kon was 281000 M⁻¹ s⁻¹.

**Q.** What about the % inhibition of CD73 activity at 1 µg/ml antibody (COR-L23 cells, 4 h, LC/MS); cell TB19 x H19 [1] of the same binder?
**A.** The % inhibition of CD73 activity at 1 µg/ml antibody (COR-L23 cells, 4 h, LC/MS); cell TB19 x H19 was 97%.

**Q.** And the fold more stable (kd of the principal component) than with either monovalent parental (soluble CD73 dimer [5])?
**A.** The fold more stable (kd of the principal component) than with either monovalent parental was 26 fold.

**Q.** What about the EC50 (nM) of inhibition of CD73 activity (adenosine by LC/MS) [6] of the same binder?
**A.** Its EC50 (nM) of inhibition of CD73 activity (adenosine by LC/MS) is 0.382 nM.

**Q.** And the Max Inhib. (projected maximal inhibition at saturating antibody) [6]?
**A.** Its Max Inhib. (projected maximal inhibition at saturating antibody) is 98%.

**Q.** And the inhibition of CD73 enzymatic activity on COR-L23 cells at 1 µg/mL [6]?
**A.** The inhibition of CD73 enzymatic activity on COR-L23 cells at 1 µg/mL was over 95%.

**Q.** And the abundance of association component (biphasic fit) (soluble CD73 dimer [7])?
**A.** Its abundance of association component (biphasic fit) is 65%.

**Q.** And the koff (soluble CD73 dimer [8])?
**A.** Its koff is 2.7e-05 s⁻¹.

**Q.** What about the fold increase of apparent affinity (KD) over either monovalent parental antibody (soluble CD73 dimer [9]) of the same binder?
**A.** The fold increase of apparent affinity (KD) over either monovalent parental antibody was 69 fold.

**Q.** What about the abundance of association component (biphasic fit) (soluble CD73 dimer [10]) of the same binder?
**A.** The abundance of association component (biphasic fit) was 35%.

**Q.** What about the Kd (soluble CD73 dimer [11]) of the same binder?
**A.** Its Kd is 0.0602 nM.

**Q.** What about the abundance of dissociation component (biphasic fit) (soluble CD73 dimer [12]) of the same binder?
**A.** Its abundance of dissociation component (biphasic fit) is 15%.

**Q.** What about the fold lower KD than either parental antibody (soluble CD73 dimer [13]) of the same binder?
**A.** The fold lower KD than either parental antibody was 15 fold.

**Q.** And the kon (soluble CD73 dimer [14])?
**A.** The kon was 1.38e+06 M⁻¹ s⁻¹.

**Q.** And the koff (soluble CD73 dimer [15])?
**A.** Its koff is 0.000112 s⁻¹.

**Q.** And the kon (soluble CD73 dimer [15])?
**A.** Its kon is 449000 M⁻¹ s⁻¹.

B3: TB19/E23 (bispecific antibody, part only; not given: E23 arm, part only)
TB19 arm heavy chain: QEQLQESGPGLVKPSETLSLTCTVSGGSIRNNYYNWIRQPAGKGLEWIGRIYISGTTNSNPSLKSRVTMSIDTSKNQFSLKLSSVTAADTAIYYCAREHYVSGTSLDNWGQGTLVTVSS
TB19 arm light chain: EIVMTQSPTTLSLSPGERATLSCRASQSVNTNYFSWYQQKPGLTPRLLIYGTSTRATGIPARFSGSGSGTDFTLTISSLQPEDFGIYYCQQDYNLPYTFGQGTYLEIKRTVAAPSVFIFPPSDEQLKSGTASVVCLLNNFYPREAKVQWKVDNALQSGNSQESVTEQDSKDSTYSLSSTLTLSKADYEKHKVYACEVTHQGLSSPVTKSFNRGEC
**Q.** How did the % inhibition of CD73 activity at 1 µg/ml antibody (COR-L23 cells, 4 h, LC/MS); cell TB19 x E23 [1] turn out when B3 was run?
**A.** The % inhibition of CD73 activity at 1 µg/ml antibody (COR-L23 cells, 4 h, LC/MS); cell TB19 x E23 was 50%.

B4: TB19/TA10 (bispecific antibody, part only; not given: TA10 arm, part only)
TB19 arm heavy chain: QEQLQESGPGLVKPSETLSLTCTVSGGSIRNNYYNWIRQPAGKGLEWIGRIYISGTTNSNPSLKSRVTMSIDTSKNQFSLKLSSVTAADTAIYYCAREHYVSGTSLDNWGQGTLVTVSS
TB19 arm light chain: EIVMTQSPTTLSLSPGERATLSCRASQSVNTNYFSWYQQKPGLTPRLLIYGTSTRATGIPARFSGSGSGTDFTLTISSLQPEDFGIYYCQQDYNLPYTFGQGTYLEIKRTVAAPSVFIFPPSDEQLKSGTASVVCLLNNFYPREAKVQWKVDNALQSGNSQESVTEQDSKDSTYSLSSTLTLSKADYEKHKVYACEVTHQGLSSPVTKSFNRGEC
**Q.** Which % inhibition of CD73 activity at 1 µg/ml antibody (COR-L23 cells, 4 h, LC/MS); cell TB19 x TA10 [1] does the source give for B4 here?
**A.** The % inhibition of CD73 activity at 1 µg/ml antibody (COR-L23 cells, 4 h, LC/MS); cell TB19 x TA10 was 80%.
